Assay results taken from the supplement of paper PMC10065799, “High-throughput profiling of sequence recognition by tyrosine kinases and SH2 domains using bacterial peptide display” (eLife, 2023).

What was measured:
Fyn = Fyn (UniProt P06241); experiment: phosphorylation enrichment, bacterial display (enrichment ratio); higher = better substrate or ligand; peptides without Tyr show the background
Fer (mouse) = experiment: as above
EPHB1 = EPHB1 (UniProt P54762); experiment: as above
Hck = Hck (UniProt P08631); experiment: as above
EPHB2 = EPHB2 (UniProt P29323); experiment: as above
c-Abl (mouse) = experiment: as above
AncSZ = experiment: as above
FGFR3 = FGFR3 (UniProt P22607); experiment: as above
Jak2 = Jak2 (UniProt O60674); experiment: as above
FGFR1 = FGFR1 (UniProt P11362); experiment: as above
c-Src = experiment: as above
Fes = Fes (UniProt P07332); experiment: as above
MERTK = MERTK (UniProt Q12866); experiment: as above
c-Src SH2 = experiment: SH2 binding enrichment of the phosphorylated peptide, bacterial display (enrichment ratio); higher = better substrate or ligand; peptides without Tyr show the background
SHP2-C SH2 = experiment: as above
Grb2 SH2 = Grb2 SH2 (UniProt P62993); experiment: as above
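Wherever SH2 binding enrichment of the phosphorylated peptide, bacterial display is given: peptide library displayed on the E. coli surface as eCPX fusions, selected cells deep-sequenced, score is each peptide's frequency after selection divided by its frequency in the input.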
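Wherever phosphorylation enrichment, bacterial display is given: 11-residue human phosphosite peptides and single-mutation variants displayed on the E. coli surface, counted by deep sequencing, each peptide's frequency after selection divided by its frequency in the unselected input library; frequency after pTyr selection over input frequency; kinase dosed for 20-30% of maximal phosphorylation in three min.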

EPHB1, sequence (P54762 whole entry, looked up): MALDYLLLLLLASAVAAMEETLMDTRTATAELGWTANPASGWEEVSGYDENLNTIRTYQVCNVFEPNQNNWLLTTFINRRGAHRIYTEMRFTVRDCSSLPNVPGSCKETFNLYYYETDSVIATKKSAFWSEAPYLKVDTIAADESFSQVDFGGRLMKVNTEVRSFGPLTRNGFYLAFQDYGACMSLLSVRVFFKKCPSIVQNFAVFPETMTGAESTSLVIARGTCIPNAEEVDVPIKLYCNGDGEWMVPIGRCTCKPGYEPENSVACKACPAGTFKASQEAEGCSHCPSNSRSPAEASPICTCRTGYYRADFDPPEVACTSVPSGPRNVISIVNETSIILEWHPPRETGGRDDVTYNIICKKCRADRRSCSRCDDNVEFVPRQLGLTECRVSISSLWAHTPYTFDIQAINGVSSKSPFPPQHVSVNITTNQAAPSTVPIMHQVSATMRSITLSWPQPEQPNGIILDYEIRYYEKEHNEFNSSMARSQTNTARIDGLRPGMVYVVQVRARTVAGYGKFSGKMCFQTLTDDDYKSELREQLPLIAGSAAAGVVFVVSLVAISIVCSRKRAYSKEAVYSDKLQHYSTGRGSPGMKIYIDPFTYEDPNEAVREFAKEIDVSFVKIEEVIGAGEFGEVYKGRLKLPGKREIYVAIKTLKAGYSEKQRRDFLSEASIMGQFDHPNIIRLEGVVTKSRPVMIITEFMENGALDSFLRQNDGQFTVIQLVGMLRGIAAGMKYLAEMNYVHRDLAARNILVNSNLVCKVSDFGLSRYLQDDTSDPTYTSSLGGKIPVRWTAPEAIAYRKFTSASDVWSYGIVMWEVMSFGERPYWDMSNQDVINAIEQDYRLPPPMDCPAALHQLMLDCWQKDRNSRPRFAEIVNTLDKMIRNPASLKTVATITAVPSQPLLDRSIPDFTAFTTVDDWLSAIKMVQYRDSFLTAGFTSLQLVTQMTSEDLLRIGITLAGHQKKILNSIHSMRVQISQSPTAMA
Fes, sequence (P07332 whole entry, looked up): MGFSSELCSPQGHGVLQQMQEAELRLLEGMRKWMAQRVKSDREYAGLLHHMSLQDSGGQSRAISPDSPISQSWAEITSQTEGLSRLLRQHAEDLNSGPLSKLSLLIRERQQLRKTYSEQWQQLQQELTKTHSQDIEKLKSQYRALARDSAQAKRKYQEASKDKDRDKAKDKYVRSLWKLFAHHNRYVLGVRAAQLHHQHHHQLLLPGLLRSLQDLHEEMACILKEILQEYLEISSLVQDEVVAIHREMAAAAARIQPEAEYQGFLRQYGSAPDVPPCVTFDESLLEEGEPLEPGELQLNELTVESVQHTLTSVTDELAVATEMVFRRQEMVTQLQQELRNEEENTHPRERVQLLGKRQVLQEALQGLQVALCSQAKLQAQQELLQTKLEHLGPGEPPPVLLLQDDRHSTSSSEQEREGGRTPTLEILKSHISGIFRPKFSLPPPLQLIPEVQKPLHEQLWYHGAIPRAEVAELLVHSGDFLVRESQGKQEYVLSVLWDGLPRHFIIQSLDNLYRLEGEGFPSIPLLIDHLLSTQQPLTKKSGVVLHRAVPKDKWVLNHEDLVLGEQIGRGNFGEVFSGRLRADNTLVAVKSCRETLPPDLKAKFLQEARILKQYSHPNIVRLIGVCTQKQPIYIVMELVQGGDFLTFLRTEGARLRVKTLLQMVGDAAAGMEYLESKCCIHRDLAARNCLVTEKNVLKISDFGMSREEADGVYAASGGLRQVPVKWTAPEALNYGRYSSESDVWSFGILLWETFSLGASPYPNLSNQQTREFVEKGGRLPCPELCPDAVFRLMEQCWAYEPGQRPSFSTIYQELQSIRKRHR
MERTK, sequence (Q12866 whole entry, looked up): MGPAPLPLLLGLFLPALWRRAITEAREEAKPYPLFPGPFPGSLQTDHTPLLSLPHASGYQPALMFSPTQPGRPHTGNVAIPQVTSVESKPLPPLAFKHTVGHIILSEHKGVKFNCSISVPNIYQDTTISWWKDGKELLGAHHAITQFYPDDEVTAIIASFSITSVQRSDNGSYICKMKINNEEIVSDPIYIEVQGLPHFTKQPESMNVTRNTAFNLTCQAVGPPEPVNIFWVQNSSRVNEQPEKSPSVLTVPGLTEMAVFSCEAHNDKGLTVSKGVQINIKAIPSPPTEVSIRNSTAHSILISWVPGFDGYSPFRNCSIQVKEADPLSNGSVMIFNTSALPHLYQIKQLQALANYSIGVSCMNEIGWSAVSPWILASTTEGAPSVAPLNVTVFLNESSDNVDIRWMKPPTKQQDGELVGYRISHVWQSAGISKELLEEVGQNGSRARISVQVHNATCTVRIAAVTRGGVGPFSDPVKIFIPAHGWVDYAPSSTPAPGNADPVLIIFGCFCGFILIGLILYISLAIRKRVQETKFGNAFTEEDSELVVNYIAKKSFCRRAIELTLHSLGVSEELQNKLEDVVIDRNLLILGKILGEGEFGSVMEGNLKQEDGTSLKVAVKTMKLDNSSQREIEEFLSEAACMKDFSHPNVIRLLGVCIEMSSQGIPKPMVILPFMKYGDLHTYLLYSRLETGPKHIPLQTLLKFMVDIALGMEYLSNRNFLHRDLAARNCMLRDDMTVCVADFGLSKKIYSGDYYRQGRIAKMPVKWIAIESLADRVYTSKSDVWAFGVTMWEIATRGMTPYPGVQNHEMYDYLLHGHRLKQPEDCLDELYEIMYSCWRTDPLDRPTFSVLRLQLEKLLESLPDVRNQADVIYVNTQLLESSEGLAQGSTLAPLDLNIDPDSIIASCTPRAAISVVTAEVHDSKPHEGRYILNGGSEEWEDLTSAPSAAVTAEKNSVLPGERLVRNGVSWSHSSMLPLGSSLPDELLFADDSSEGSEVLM
Fyn, sequence (P06241 whole entry, looked up): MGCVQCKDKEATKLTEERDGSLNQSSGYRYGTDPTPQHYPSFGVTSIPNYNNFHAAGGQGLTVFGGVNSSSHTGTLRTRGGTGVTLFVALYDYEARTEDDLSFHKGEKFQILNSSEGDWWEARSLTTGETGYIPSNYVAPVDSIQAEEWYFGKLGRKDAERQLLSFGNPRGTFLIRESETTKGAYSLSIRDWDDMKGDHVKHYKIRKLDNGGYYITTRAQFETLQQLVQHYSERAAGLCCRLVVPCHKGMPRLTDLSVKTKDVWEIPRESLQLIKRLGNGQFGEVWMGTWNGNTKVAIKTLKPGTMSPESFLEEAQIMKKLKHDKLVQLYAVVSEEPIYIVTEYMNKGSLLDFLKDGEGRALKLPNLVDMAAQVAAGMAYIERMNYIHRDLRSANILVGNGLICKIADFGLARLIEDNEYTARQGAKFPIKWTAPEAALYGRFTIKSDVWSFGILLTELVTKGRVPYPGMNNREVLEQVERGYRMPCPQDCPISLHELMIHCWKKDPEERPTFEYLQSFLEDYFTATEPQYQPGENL
EPHB2, sequence (P29323 whole entry, looked up): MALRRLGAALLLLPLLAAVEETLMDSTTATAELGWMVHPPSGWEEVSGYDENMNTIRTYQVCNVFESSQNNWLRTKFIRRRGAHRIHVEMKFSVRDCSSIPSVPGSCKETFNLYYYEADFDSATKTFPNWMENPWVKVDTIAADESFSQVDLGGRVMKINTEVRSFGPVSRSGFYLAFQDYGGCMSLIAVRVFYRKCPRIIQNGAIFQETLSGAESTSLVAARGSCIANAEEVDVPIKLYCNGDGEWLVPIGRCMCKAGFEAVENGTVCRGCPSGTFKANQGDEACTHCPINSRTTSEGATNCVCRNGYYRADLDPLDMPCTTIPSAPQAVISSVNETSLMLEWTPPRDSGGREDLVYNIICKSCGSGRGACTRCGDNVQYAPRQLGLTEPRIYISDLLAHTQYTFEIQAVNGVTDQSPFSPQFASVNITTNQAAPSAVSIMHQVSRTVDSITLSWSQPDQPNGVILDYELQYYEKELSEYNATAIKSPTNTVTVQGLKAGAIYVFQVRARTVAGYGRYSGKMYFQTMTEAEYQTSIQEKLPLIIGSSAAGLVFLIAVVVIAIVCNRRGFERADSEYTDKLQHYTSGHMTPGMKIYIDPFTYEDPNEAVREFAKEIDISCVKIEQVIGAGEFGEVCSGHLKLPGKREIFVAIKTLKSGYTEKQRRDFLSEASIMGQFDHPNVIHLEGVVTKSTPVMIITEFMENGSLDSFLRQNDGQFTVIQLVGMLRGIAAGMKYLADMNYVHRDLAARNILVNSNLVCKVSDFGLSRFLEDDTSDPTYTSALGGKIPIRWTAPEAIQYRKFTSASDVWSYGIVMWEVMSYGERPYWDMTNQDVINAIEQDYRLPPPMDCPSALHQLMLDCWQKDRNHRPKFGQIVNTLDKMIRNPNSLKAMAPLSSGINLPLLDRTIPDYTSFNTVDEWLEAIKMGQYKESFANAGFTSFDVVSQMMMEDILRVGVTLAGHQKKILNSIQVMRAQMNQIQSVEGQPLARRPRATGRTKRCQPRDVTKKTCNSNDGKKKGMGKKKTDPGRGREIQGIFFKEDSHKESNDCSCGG
Hck, sequence (P08631 whole entry, looked up): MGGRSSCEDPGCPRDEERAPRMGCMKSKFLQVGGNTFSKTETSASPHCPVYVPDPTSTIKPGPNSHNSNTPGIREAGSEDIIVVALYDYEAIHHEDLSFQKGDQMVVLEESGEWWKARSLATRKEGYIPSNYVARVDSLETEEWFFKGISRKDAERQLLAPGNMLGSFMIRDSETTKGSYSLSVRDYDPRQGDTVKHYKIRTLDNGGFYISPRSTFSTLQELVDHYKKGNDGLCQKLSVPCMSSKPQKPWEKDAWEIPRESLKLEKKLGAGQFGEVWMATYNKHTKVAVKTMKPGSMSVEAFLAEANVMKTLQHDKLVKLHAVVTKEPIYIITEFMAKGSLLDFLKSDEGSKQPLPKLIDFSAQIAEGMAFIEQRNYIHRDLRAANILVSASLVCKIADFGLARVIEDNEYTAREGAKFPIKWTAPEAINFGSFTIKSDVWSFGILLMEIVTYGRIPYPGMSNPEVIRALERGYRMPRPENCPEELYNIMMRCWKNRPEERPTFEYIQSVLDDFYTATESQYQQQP

Sequence	SH2 binding enrichment (c-Src SH2)	SH2 binding enrichment (SHP2-C SH2)	SH2 binding enrichment (Grb2 SH2)	phosphorylation enrichment (Fyn)	phosphorylation enrichment (Fer (mouse))	phosphorylation enrichment (EPHB1)	phosphorylation enrichment (Hck)	phosphorylation enrichment (EPHB2)	phosphorylation enrichment (c-Abl (mouse))	phosphorylation enrichment (AncSZ)	phosphorylation enrichment (FGFR3)	phosphorylation enrichment (Jak2)	phosphorylation enrichment (FGFR1)	phosphorylation enrichment (c-Src)	phosphorylation enrichment (Fes)	phosphorylation enrichment (MERTK)
LVSCAYQVARG [FGFR1_Y605]	0.644	0.728	0.883	0.487	0.505	0.61	0.609	0.612	0.641	0.867	0.577	0.657	0.462	0.577	0.89	0.424
EATKGYPDDPT [G6PD_Y322_L323P]	0.485	0.538	0.765	0.479	0.483	0.501	0.508	0.673	0.786	0.901	0.609	1.07	0.465	0.493	1.05	0.515
LDYNEYFRYLN [HPRT1_Y198_D201Y]	0.765	1.18	2.06	1.45	0.635	0.858	1.41	1.39	1.81	1.79	2.1	7.21	3.33	2.04	1.23	0.573
GGTPLYMDRQG [AGXT_Y194]	0.448	0.685	0.76	0.516	0.431	0.465	1.26	0.501	0.499	0.606	0.47	0.513	0.401	0.505	0.614	0.409
IMVFVYCRVFQ [ADRB2_Y219_S220C]	0.768	1.1	1.41	0.51	0.435	0.424	0.473	0.488	0.63	0.729	0.632	0.699	0.841	0.395	0.836	0.449
CDTKLYTSVPN [DNTTIP2_Y427_A430V]	1.22	0.48	0.728	0.655	1.27	1.11	1.01	0.77	0.755	0.96	0.797	0.842	0.62	0.849	1.12	1.5
RAIGFYSATSK [FAM120A_Y328_YF]	0.886	0.95	0.989	0.685	0.911	0.46	0.774	0.81	1.26	1.51	0.805	0.889	0.545	0.59	1.03	1.03
IEEGTYGVVFR [CDK11B_Y449_YF]	0.349	0.467	0.722	8.86	6.28	2.76	7.46	7.66	1.2	1.41	0.961	1.38	0.548	5.94	1.48	3.13
MNLLGYRHVRS [CHST4_Y359]	0.545	0.748	0.855	0.403	0.409	0.423	0.488	0.461	0.663	0.761	0.466	0.691	0.612	0.405	0.738	0.4
GIVKAYYVRAR [AIPL1_Y267]	0.464	0.502	0.858	0.394	0.407	0.398	0.396	0.47	0.558	1.03	0.548	0.706	0.461	0.415	0.771	0.465
LGLTVYADCLA [ABCA4_Y2063]	0.564	0.553	0.918	0.589	0.584	0.686	0.515	0.657	0.815	1.14	0.78	0.992	0.618	0.473	1.39	0.369
STAPSYGNPSS [CD19_Y378_G373S]	0.458	0.694	0.744	0.383	0.32	0.328	0.34	0.357	0.482	0.545	0.358	0.503	0.361	0.381	0.505	0.402

Further lines, with some results ahead:

SH2 binding enrichment (c-Src SH2)	SH2 binding enrichment (SHP2-C SH2)	SH2 binding enrichment (Grb2 SH2)	Sequence	phosphorylation enrichment (Fyn)	phosphorylation enrichment (Fer (mouse))	phosphorylation enrichment (EPHB1)	phosphorylation enrichment (Hck)	phosphorylation enrichment (EPHB2)	phosphorylation enrichment (c-Abl (mouse))	phosphorylation enrichment (AncSZ)	phosphorylation enrichment (FGFR3)	phosphorylation enrichment (Jak2)	phosphorylation enrichment (FGFR1)	phosphorylation enrichment (c-Src)	phosphorylation enrichment (Fes)	phosphorylation enrichment (MERTK)
0.457	0.705	0.862	SVTFTYSPALN [TP53_Y126_C124Y_YF]	0.424	0.465	0.502	0.453	0.554	0.675	1.08	0.697	0.991	0.392	0.392	1.21	0.336
0.59	0.739	0.813	RTCSSYTIEKI [PARP15_Y520_A521T]	0.638	0.502	0.608	0.726	0.474	0.84	0.937	1.18	1.13	0.475	0.544	1.51	0.533
0.688	0.411	0.754	SNVEQYQAMVT [TPR_Y965]	0.506	0.457	0.443	0.424	0.444	0.487	0.754	0.541	0.846	0.416	0.384	0.692	0.355
1.32	0.803	1.24	KELAPYDENCF [RPS19_Y48_W52C]	0.583	0.632	0.628	0.57	0.696	0.997	1.32	0.902	1.31	0.573	0.612	1.48	0.487
0.382	0.708	0.796	CTLNVYRQLHN [LUZP1_Y1036_S1034N]	0.459	0.516	0.753	0.551	0.585	0.739	1.05	0.749	1	0.558	0.473	1.28	0.475
0.516	0.735	0.795	FRDALYKSMVD [PHEX_Y250_F252S_YF]	0.419	0.488	0.608	0.476	0.614	0.643	0.792	0.642	0.897	0.497	0.365	0.97	0.484
0.583	2.61	0.461	VEYAKYGSLRG [RET_Y809]	1.21	0.395	0.441	0.758	0.409	0.824	0.544	0.47	0.335	0.349	1.56	0.552	0.473
0.467	0.793	0.88	ADKSAYLMGLN [MYH7_Y386]	0.543	0.549	0.405	0.524	0.465	0.467	0.625	0.579	0.67	0.526	0.535	0.671	0.502
0.471	0.776	0.948	LSGFCYRLSDQ [PDCD6_Y124_G123C]	0.928	0.816	1.08	0.804	1.28	1.34	1.66	1.33	1.53	0.932	0.607	1.46	0.566
2.41	0.722	0.971	NTYEKYLGEEY [TF_Y669]	0.974	0.523	0.601	0.688	0.74	0.935	1.12	0.756	0.99	0.472	1.03	1.06	0.382
0.599	0.641	0.565	RRNVYYYSYLL [PTEN_Y177_Y174N]	1.14	0.556	1.74	1.13	0.707	0.616	1.16	4.21	2.42	6.81	1.79	0.796	8.2
0.57	0.822	0.574	RRIHSYRSHLW [VHL_Y112_G114S]	0.833	0.507	0.81	0.601	2.19	0.395	0.576	0.778	0.487	1.25	0.439	1.17	0.718
0.518	0.761	0.958	LNEQHYGGLTG [PGAM4_Y92_R90Q]	0.956	0.769	0.949	0.902	0.574	1.5	0.752	0.972	0.915	0.659	1.04	1.2	0.845
0.506	0.778	1.15	NRLNDYIFSFD [RARS1_Y516]	0.461	0.424	0.538	0.469	0.538	0.789	1.09	0.729	0.977	0.721	0.555	1.03	0.475
0.584	0.82	0.817	VEFAKYGSLRG [RET_Y809_YF]	0.528	0.4	0.403	0.488	0.458	0.622	0.629	0.469	0.541	0.417	0.437	0.664	0.397
0.723	0.714	1.05	VMICAYLLHRG [PTEN_Y138]	0.478	0.688	0.612	0.558	0.63	1.27	1.21	0.778	1.36	0.642	0.644	1.68	0.482
0.643	0.803	0.918	EMFNPCYGLFE [NEDD4L_Y679_Y679C]	4.58	1.14	0.489	1.43	0.689	1.03	1.04	0.713	1.2	0.543	5.2	1.49	0.765
